We go through three molecules from patent US8697386B2, “Methods and compositions for modulating hepsin activation of macrophage-stimulating protein” (Genentech, Inc., priority 2009, dated 2014).

The target of one assay is T1, hepsin (Homo sapiens, UniProt P05981).
T1 construct: The extracellular domain of the human recombinant hepsin was expressed and purified as described; made in house
Kind of assay: In vitro activation of pro-MSP by recombinant hepsin (SDS-PAGE). The format is biochemical. Particulars: 25 μg/ml substrate, hepsin 1.25-10 nM, 37° C., SDS-PAGE reducing; mutant up to 24 hours. How it is done: Analysis of in vitro activation of pro-msp by hepsin using sds-page: Pro-MSP (25 μg/ml) was incubated with different concentrations of hepsin (1.25 nM, 2.5 nM, 5 nM and 10 nM) in a buffer containing 50 mM Tris-HCl pH 8.0, 150 mM NaCl, 0.05% Triton-X100 and 2 mM CaCl2 at 37° C. Aliquots of the reaction mixture at different time points were mixed 6×-SDS sample buffer and the samples were boiled for 5 minutes at 95° C. and separated by SDS-PAGE using a 4-20% gradient gel. Protein was visualized after staining with SimplyBlue Safe Stain (Invitrogen, Carlsbad, Calif.). Similar experiments were performed with the pro-MSP that was mutated to render it uncleavable at Arg483-Val484(pro-MSP-R483E) to assess if proteolytic cleavage site occurs at a different site apart from the expected Arg483-Val484 bond in pro-MSP.

The test system of the next assay is bone marrow macrophages. The assay is described as follows: Inhibition of nitric oxide (NO) synthesis in bone marrow macrophages. The format is cell-based, mouse. The following applies: MSP/pro-MSP 10 ng/ml, hepsin 1 nM, 24 hours, Griess reaction. As to the method: Inhibition of NO synthesis by mature MSP: Bone marrow cells obtained from collected mouse femurs were pipetted to a single-cell suspension and then spun down. Red blood cells were lysed by incubation with erythrocyte lysis buffer for 5 minutes at room temperature. Cells were then suspended in macrophage differentiation medium (DMEM with glutamine containing 10% FBS, Pen/Strep and 50 ng/ml recombinant mCSF-1). Cells were then plated onto sterile 24-well non-tissue culture dishes. Medium was changed the next day and subsequently every 2 days. After 6 days in culture, the macrophages were mature and these mature cells were washed in serum-free DMEM and further incubated for 2 hours. Different reactions (total volume 300 μL) as indicated in the figure consisting of recombinant MSP (10 ng/ml), pro-MSP (10 ng/ml), hepsin (1 nM) and Fab25 (500 nM) were added to the respective wells and cultured for 24 hours at 37° C. in a tissue culture incubator. NO production was quantified using Griess reaction (Molecular Probes) according to manufacturer's recommendation.

A further assay has as its target T2, human Ron (Homo sapiens, UniProt Q04912).
T2 construct: the Ron (Sema IPT1)-IgG fusion protein was captured
T2 sequence (Q04912 25-683 limits assumed): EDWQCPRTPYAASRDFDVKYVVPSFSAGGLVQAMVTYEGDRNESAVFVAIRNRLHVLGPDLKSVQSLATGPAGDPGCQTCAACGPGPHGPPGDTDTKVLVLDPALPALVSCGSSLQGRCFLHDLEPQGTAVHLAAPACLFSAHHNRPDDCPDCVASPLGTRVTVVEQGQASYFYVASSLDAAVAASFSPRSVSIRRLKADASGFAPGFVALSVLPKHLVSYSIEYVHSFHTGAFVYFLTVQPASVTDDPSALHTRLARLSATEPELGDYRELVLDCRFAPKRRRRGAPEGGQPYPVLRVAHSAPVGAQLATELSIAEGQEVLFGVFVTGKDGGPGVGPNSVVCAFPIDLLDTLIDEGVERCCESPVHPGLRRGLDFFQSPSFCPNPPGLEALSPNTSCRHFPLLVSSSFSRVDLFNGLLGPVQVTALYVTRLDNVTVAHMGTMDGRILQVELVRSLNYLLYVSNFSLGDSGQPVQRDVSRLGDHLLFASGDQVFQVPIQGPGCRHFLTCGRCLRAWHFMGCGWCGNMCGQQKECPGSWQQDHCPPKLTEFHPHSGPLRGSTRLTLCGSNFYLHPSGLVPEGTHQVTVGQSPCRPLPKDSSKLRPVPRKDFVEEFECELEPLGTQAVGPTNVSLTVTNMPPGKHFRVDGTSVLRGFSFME
The assay is described as follows: Binding to Ron by surface plasmon resonance (BIAcore). The following applies: SPR; for detectable binding to Ron: up to a concentration of 1 μM. As to the method:
Binding of hepsin-activated pro-MSP to Ron by surface plasmon resonance and ELISA: To determine binding affinity of hepsin-activated MSP to human Ron, surface plasmon resonance measurements on a BIAcore™-3000 instrument (GE Health Care, NJ) were performed. Rabbit anti-human IgG were chemically immobilized (amine coupling) on CM5 biosensor chips and the Ron (Sema IPT1)-IgG fusion protein was captured to give approximately 250 response units (RU). For kinetics measurements, different concentration of either hepsin-activated MSP or a commercially available MSP (R&D systems) were injected in HBS-P buffer at 25° C. with a flow rate of 30 μl/min. Association rates (kon) and dissociation rates (koff) were obtained by using a simple one-to-one Langmuir binding model (BIA-Evaluation) and the equilibrium dissociation constants (KD) were calculated (koff/kon). For ELISA experiments, maxiSorp microtiter plates (Nunc, Roskilde, Denmark) were coated overnight at 4° C. with 2 μg/ml of rabbit anti-human IgG Fc specific antibody (Jackson ImmunoResearch Laboratory, West Grove, Pa.) in 50 mM sodium carbonate buffer, pH 9.6. After blocking with assay buffer (PBS pH 7.4, 0.5% BSA and 0.05% Tween-20, 15 PPM Proclin), 1 μg/ml Ron (Sema IPT1)-IgG fusion protein was added and plates were incubated for 1 hour with gentle shaking at room temperature. After washing with wash buffer (PBS, 0.05% polysorbate 20), His tagged MSP proteins were added for 1 hour. Bound MSP was detected using anti-His-HRP (Qiagen, Valencia, Calif.) followed by addition of TMB/H2O2 substrate (KPL, Gaithersburg, Md.). The reaction was stopped with 1M H3PO4 and the A450 was measured on a Molecular Devices (Sunnyvale, Calif.) SpectraMax Plus^384 microplate reader. The effective concentration to give half-maximal binding (EC50) was determined by a four parameter fit using Kaleidagraph (Synergy Software, Reading, Pa.).

A further assay relates to Ron signaling pathway. The assay is described as follows: Immunoblot for phosphorylated downstream kinases in A2780 cells overexpressing human Ron. The following applies: pro-MSP 10 and 50 ng/ml, 10 nM hepsin, 1 hour. The format is cell-based. How it is done:
Immunoblot for the detection of phosphorylated kinases: A human ovarian carcinoma cell line (A2780) overexpressing human Ron was used to study the phosphorylation of Ron and other downstream kinase. Cells at a density of 2×10^5 cells/well were cultured in 12-well plate and serum-starved for 24 hours. The cells were then stimulated with either pro-MSP (10 and 50 ng/ml) alone or in presence of 10 nM Hepsin for 1 hour. Mature MSP from a commercial source and hepsin were used as controls. Samples were prepared by washing cells twice with cold PBS followed by addition of 200 ul lysis buffer. Samples were then analyzed by SDS/PAGE on 4-12% Tris-glycine gels (Invitrogen, Carlsbad, Calif.). Proteins were transferred onto nitrocellulose membranes and subsequently treated with anti-Ron antibody or anti-phospho-AKT antibody or anti-phospho-MAPK antibody or anti-phospho-S6 antibody, overnight at 4° C. After washing, membranes were incubated with IRDye800-conjugated goat anti-mouse IgG (Rockland, Gilbertsville, Pa.) and AlexaFluor 680 goat anti-rabbit IgG (Invitrogen) for 1 h. Proteins were detected with the Odyssey Infrared Imaging System (LI-COR Biosciences, Lincoln, Nebr.).

Entries after “also recorded” stand apart in the source; their conditions may differ.

T1 sequence (P05981 45-417 limits assumed): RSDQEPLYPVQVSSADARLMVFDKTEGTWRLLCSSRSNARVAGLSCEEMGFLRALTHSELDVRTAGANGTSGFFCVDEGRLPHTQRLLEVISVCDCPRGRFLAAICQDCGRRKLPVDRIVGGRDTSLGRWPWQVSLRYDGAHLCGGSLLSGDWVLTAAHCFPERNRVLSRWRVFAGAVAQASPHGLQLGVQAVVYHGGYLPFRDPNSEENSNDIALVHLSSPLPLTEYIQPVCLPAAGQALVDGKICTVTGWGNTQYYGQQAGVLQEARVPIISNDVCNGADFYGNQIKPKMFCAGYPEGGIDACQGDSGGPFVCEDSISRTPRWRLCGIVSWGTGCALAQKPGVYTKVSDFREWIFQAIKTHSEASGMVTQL

B1: pro-MSP: inactive single-chain precursor of MSP; recombinant human MSP with C672A mutation expressed in Chinese Hamster Ovary cells (protein, listed as Homo sapiens)
chain: MGWLPLLLLLTQCLGVPGQRSPLNDFQVLRGTELQHLLHAVVPGPWQEDVADAEECAGRCGPLMDCRAFHYNVSSHGCQLLPWTQHSPHTRLRRSGRCDLFQKKDYVRTCIMNNGVGYRGTMATTVGGLPCQAWSHKFPNDHKYTPTLRNGLEENFCRNPDGDPGGPWCYTTDPAVRFQSCGIKSCREAACVWCNGEEYRGAVDRTESGRECQRWDLQHPHQHPFEPGKFLDQGLDDNYCRNPDGSERPWCYTTDPQIEREFCDLPRCGSEAQPRQEATTVSCFRGKGEGYRGTANTTTAGVPCQRWDAQIPHQHRFTPEKYACKDLRENFCRNPDGSEAPWCFTLRPGMRAAFCYQIRRCTDDVRPQDCYHGAGEQYRGTVSKTRKGVQCQRWSAETPHKPQFTFTSEPHAQLEENFCRNPDGDSHGPWCYTMDPRTPFDYCALRRCADDQPPSILDPPDQVQFEKCGKRVDRLDQRRSKLRVVGGHPGNSPWTVSLRNRQGQHFCGGSLVKEQWILTARQCFSSCHMPLTGYEVWLGTLFQNPQHGEPSLQRVPVAKMVCGPSGSQLVLLKLERSVTLNQRVALICLPPEWYVVPPGTKCEIAGWGETKGTGNDTVLNVALLNVISNQECNIKHRGRVRESEMCTEGLLAPVGACEGDYGGPLACFTHNAWVLEGIIIPNRVCARSRWPAVFTRVSVFVDWIHKVMRLG
With B1, in the assay with hepsin, the “proteolytic cleavage/activation by hepsin” value was “activated pro-MSP in a dose-dependent and time dependent manner”. In the assay with bone marrow macrophages, the “effect on NO production in response to LPS” value is reported as “did not inhibit”. Moreover, in the assay with human Ron, the “detectable binding to Ron” value was “Neither pro-MSP nor the cleavage site mutant (pro-MSP-R483E) had any detectable binding; also recorded: No detectable binding”. Besides, the “phosphorylation of MAP kinase and S6 kinase (activation of Ron signaling pathway)” value with Ron signaling pathway is “Neither hepsin nor pro-MSP alone was effective”.

B2: commercially available MSP: recombinant active form of human MSP (R&D Systems) (protein)
chain 1: QRSPLNDFQVLRGTELQHLLHAVVPGPWQEDVADAEECAGRCGPLMDCRAFHYNVSSHGCQLLPWTQHSPHTRLRRSGRCDLFQKKDYVRTCIMNNGVGYRGTMATTVGGLPCQAWSHKFPNDHKYTPTLRNGLEENFCRNPDGDPGGPWCYTTDPAVRFQSCGIKSCREAACVWCNGEEYRGAVDRTESGRECQRWDLQHPHQHPFEPGKFLDQGLDDNYCRNPDGSERPWCYTTDPQIEREFCDLPRCGSEAQPRQEATTVSCFRGKGEGYRGTANTTTAGVPCQRWDAQIPHQHRFTPEKYACKDLRENFCRNPDGSEAPWCFTLRPGMRAAFCYQIRRCTDDVRPQDCYHGAGEQYRGTVSKTRKGVQCQRWSAETPHKPQFTFTSEPHAQLEENFCRNPDGDSHGPWCYTMDPRTPFDYCALRRCADDQPPSILDPPDQVQFEKCGKRVDRLDQRRSKLR
chain 2: VVGGHPGNSPWTVSLRNRQGQHFCGGSLVKEQWILTARQCFSSCHMPLTGYEVWLGTLFQNPQHGEPSLQRVPVAKMVCGPSGSQLVLLKLERSVTLNQRVALICLPPEWYVVPPGTKCEIAGWGETKGTGNDTVLNVALLNVISNQECNIKHRGRVRESEMCTEGLLAPVGACEGDYGGPLACFTHNCWVLEGIIIPNRVCARSRWPAVFTRVSVFVDWIHKVMRLG
On to B2, for which the Kd with human Ron (Ron-Fc captured on CM5 chip, 1:1 binding model, 25° C., read-out: KD, binding affinity to Ron) was 4.4 nM.

B3: pro-MSP-R483E: pro-MSP mutated to render it uncleavable at Arg483-Val484 (protein)
chain: QRSPLNDFQVLRGTELQHLLHAVVPGPWQEDVADAEECAGRCGPLMDCRAFHYNVSSHGCQLLPWTQHSPHTRLRRSGRCDLFQKKDYVRTCIMNNGVGYRGTMATTVGGLPCQAWSHKFPNDHKYTPTLRNGLEENFCRNPDGDPGGPWCYTTDPAVRFQSCGIKSCREAACVWCNGEEYRGAVDRTESGRECQRWDLQHPHQHPFEPGKFLDQGLDDNYCRNPDGSERPWCYTTDPQIEREFCDLPRCGSEAQPRQEATTVSCFRGKGEGYRGTANTTTAGVPCQRWDAQIPHQHRFTPEKYACKDLRENFCRNPDGSEAPWCFTLRPGMRAAFCYQIRRCTDDVRPQDCYHGAGEQYRGTVSKTRKGVQCQRWSAETPHKPQFTFTSEPHAQLEENFCRNPDGDSHGPWCYTMDPRTPFDYCALRRCADDQPPSILDPPDQVQFEKCGKRVDRLDQRRSKLEVVGGHPGNSPWTVSLRNRQGQHFCGGSLVKEQWILTARQCFSSCHMPLTGYEVWLGTLFQNPQHGEPSLQRVPVAKMVCGPSGSQLVLLKLERSVTLNQRVALICLPPEWYVVPPGTKCEIAGWGETKGTGNDTVLNVALLNVISNQECNIKHRGRVRESEMCTEGLLAPVGACEGDYGGPLACFTHNAWVLEGIIIPNRVCARSRWPAVFTRVSVFVDWIHKVMRLG
In the case of B3, the “proteolytic cleavage/activation by hepsin” value in the assay with hepsin is “did not cleave”. Moreover, the “detectable binding to Ron” value in the assay with human Ron was “Neither pro-MSP nor the cleavage site mutant (pro-MSP-R483E) had any detectable binding”.
